The text below walks through data of US20220064329A1 (Novo Nordisk, published 2022).

Where a chain is given by its changes, count along the chain named.

What all share (experiment): SPR, Biacore T200, 25 C; FVII(a) variant captured on anti-Gla Ab 4F6, mAb0842(OA) injected
One assay addresses T1, FVII(a) variant E394A (human, UniProt P08709 61-466).
T1 construct: hFVII alanine variant in cell culture supernatant
T1 sequence: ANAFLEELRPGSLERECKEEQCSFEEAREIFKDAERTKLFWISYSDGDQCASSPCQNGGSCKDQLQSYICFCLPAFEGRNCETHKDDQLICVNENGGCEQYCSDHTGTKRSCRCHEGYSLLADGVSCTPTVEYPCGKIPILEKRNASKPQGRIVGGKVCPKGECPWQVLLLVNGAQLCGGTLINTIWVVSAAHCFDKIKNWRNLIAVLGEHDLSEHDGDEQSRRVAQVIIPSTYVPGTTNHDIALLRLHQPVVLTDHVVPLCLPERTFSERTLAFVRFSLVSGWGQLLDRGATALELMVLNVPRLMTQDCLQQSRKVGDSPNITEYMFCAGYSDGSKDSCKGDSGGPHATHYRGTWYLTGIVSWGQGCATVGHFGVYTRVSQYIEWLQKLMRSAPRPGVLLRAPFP
Here is the method:
(§1) The running buffer was prepared by diluting 10-fold the 10×HBS-P buffer (supplied by GE Healthcare) and supplemented with 1 mg/ml BSA and 5 mM CaCl2 to give 10 mM HEPES, 150 mM NaCl, 0.05% v/v Polysorbate 20, pH 7.4, 5 mM CaCl2, 1 mg/ml bovine serum albumin (BSA). […] Regeneration of the chip was achieved using 10 mM HEPES, 150 mM NaCl, 20 mM EDTA, 0.05 v/v Polysorbate 20, pH 7.4. Binding data were analysed according to a 1:1 Kinetic model and steady state analysis using BiaEvaluation 4.1 supplied by the manufacturer (Biacore AB, Uppsala, Sweden). Wherever possible, ka, kd and KD values from 1:1 kinetic fitting model are reported. […] An amino acid residue is considered a hot-spot residue if substitution of that amino acid residue with alanine results in an affinity reduction of ten (10) fold or more relative to the wild type.

In a further assay the target is T2, FVII(a) variant Y118A (human, UniProt P08709 61-466).
T2 construct: hFVII alanine variant in cell culture supernatant
T2 sequence: T1 sequence with Y118A, A394E
As for the experimental part: as §1

A further assay deals with T3, FVII(a) variant R392A (human, UniProt P08709 61-466).
T3 construct: hFVII alanine variant in cell culture supernatant
T3 sequence: T1 sequence with R392A, A394E
Here is the method: as §1

In another assay the target is T4, FVII(a) variant H115A (human, UniProt P08709 61-466).
T4 construct: hFVII alanine variant in cell culture supernatant
T4 sequence: T1 sequence with H115A, A394E
Here is the method:
as §1

A further assay deals with T5, FVII(a) variant N184A (human, UniProt P08709 61-466).
T5 construct: hFVII alanine variant in cell culture supernatant
T5 sequence: T1 sequence with N184A, A394E
Here is the method: as §1

For orientation: Kd means the free concentration of one partner at which half of the binding sites on the other are occupied at equilibrium, for simple one-to-one binding. A higher Kd goes with weaker binding.

B1: mAb0842(OA) (antibody, human IgG4 S228P, kappa)
heavy: QVQLQESGPGLVKPSQTLSLTCTVSGYSISSDSAWSWIRQPPGKGLEWIGYIQYSGSTNYNPSLKSRVTISRDTSKNQFSLKLSSVTAADTAVYYCARSVNYYGNSFAVGYWGQGTLVTVSSASTKGPSVFPLAPCSRSTSESTAALGCLVKDYFPEPVTVSWNSGALTSGVHTFPAVLQSSGLYSLSSVVTVPSSSLGTKTYTCNVDHKPSNTKVDKRVESKYGPPCPPCPAPEFLGGPSVFLFPPKPKDTLMISRTPEVTCVVVDVSQEDPEVQFNWYVDGVEVHNAKTKPREEQFNSTYRVVSVLTVLHQDWLNGKEYKCKVSNKGLPSSIEKTISKAKGQPREPQVYTLPPSQEEMTKNQVSLSCAVKGFYPSDIAVEWESNGQPENNYKTTPPVLDSDGSFFLVSRLTVDKSRWQEGNVFSCSVMHEALHNHYTQKSLSLSLGK
light: EIVLTQSPATLSLSPGERATLSCRASQGISDYLHWYQQKPGEAPRLLIKYTSQPATGIPARFSGSGSGTDFTLTISSLEPEDFAVYYCQNGHSFPLTFGQGTKLEIKRTVAAPSVFIFPPSDEQLKSGTASVVCLLNNFYPREAKVQWKVDNALQSGNSQESVTEQDSKDSTYSLSSTLTLSKADYEKHKVYACEVTHQGLSSPVTKSFNRGEC
chain: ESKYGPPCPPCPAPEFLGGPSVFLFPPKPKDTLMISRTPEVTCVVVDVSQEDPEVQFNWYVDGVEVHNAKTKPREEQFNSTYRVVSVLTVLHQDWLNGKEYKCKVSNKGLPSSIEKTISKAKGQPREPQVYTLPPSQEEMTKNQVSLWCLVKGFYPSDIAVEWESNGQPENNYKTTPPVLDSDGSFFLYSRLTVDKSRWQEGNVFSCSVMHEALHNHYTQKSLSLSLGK
notes: also called monovalent humanized 11F2 antibody; one-armed anti-FVII(a) antibody
Take B1: the Kd with FVII(a) variant E394A stood at 0.79 nM; in the assay with FVII(a) variant Y118A, 1.48 nM; with FVII(a) variant R392A, 43.4 nM; with FVII(a) variant H115A, 8.16 nM; in the assay with FVII(a) variant N184A it was 1.91 nM.
